# Test results reported in the supplement of paper PMC9112550, “Optimization of the antimicrobial peptide Bac7 by deep mutational scanning” (BMC Biology, 2022).
# Tested on: Escherichia coli TOP10
# Test: shrunken log2 fold change of peptide-encoding DNA abundance (4.5 h post-induction vs induction); higher = less antimicrobial activity (less host growth inhibition)
# Conditions: time post-induction: 4.5 h; library: site-saturation at positions 5, 18, 19, 20
# 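Further: peptides expressed intracellularly from a pBAD plasmid library in pooled LB shake-flask culture, induced with 0.3% L-arabinose, DNA abundance read by NGS, three biological replicates, DESeq2 with apeglm shrinkage.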
row,Sequence,shrunken log2 fold change
1,RRIRSRPPRLPRPRPRPDKEPRP,0.0247
2,RRIRYRPPRLPRPRPRPWHTPRP,-1.52
3,RRIRIRPPRLPRPRPRPHAMPRP,-0.125
4,RRIRERPPRLPRPRPRPCGAPRP,0.469
5,RRIRVRPPRLPRPRPRPQMAPRP,-0.302
6,RRIRVRPPRLPRPRPRPGWAPRP,0.228
7,RRIRYRPPRLPRPRPRPECCPRP,-0.0698
8,RRIRGRPPRLPRPRPRPSLNPRP,0.105
9,RRIRFRPPRLPRPRPRPGPCPRP,0.0242
10,RRIRERPPRLPRPRPRPRRIPRP,-0.00822
11,RRIRPRPPRLPRPRPRPGFTPRP,-0.139
12,RRIRRRPPRLPRPRPRPCWTPRP,-0.13
13,RRIRPRPPRLPRPRPRPLACPRP,0.265
14,RRIRSRPPRLPRPRPRPFPFPRP,-0.187
15,RRIRYRPPRLPRPRPRPGSAPRP,-0.24
16,RRIRTRPPRLPRPRPRPTPLPRP,0.147
17,RRIRERPPRLPRPRPRPNFDPRP,-0.145
18,RRIRQRPPRLPRPRPRPMDMPRP,-0.274
19,RRIRTRPPRLPRPRPRPSTWPRP,-0.176
20,RRIRFRPPRLPRPRPRPNVCPRP,-0.0089
21,RRIRRRPPRLPRPRPRPEDSPRP,0.0554
22,RRIRRRPPRLPRPRPRPNWWPRP,1.05
23,RRIRQRPPRLPRPRPRPKHEPRP,0.164
24,RRIRKRPPRLPRPRPRPVRIPRP,0.494
25,RRIRKRPPRLPRPRPRPHLSPRP,0.0468

row,Sequence,shrunken log2 fold change
1,RRIRNRPPRLPRPRPRPMYWPRP,-0.000123
2,RRIRDRPPRLPRPRPRPKQVPRP,-0.185
3,RRIRNRPPRLPRPRPRPHMKPRP,-0.243
4,RRIRTRPPRLPRPRPRPNVFPRP,0.0305
5,RRIRKRPPRLPRPRPRPKSTPRP,0.0348
6,RRIRQRPPRLPRPRPRPGYQPRP,-0.164
7,RRIRVRPPRLPRPRPRPPPDPRP,0.834
8,RRIRCRPPRLPRPRPRPPANPRP,0.521
9,RRIRNRPPRLPRPRPRPWQRPRP,-0.0153
10,RRIRNRPPRLPRPRPRPICTPRP,-0.122
11,RRIRIRPPRLPRPRPRPSDCPRP,-0.497
12,RRIRMRPPRLPRPRPRPDDNPRP,2.27
13,RRIRQRPPRLPRPRPRPGFMPRP,-0.176
14,RRIRQRPPRLPRPRPRPSCTPRP,-0.167
15,RRIRYRPPRLPRPRPRPCVHPRP,-0.0274
16,RRIRRRPPRLPRPRPRPSSMPRP,-0.143
17,RRIRPRPPRLPRPRPRPCMKPRP,-0.0472
18,RRIRFRPPRLPRPRPRPEMQPRP,0.0943
19,RRIRIRPPRLPRPRPRPPMDPRP,-0.372
20,RRIRYRPPRLPRPRPRPNEIPRP,-0.807
21,RRIRGRPPRLPRPRPRPHNDPRP,0.0426
22,RRIRMRPPRLPRPRPRPNPYPRP,-0.0714
23,RRIRERPPRLPRPRPRPSTFPRP,2.07
24,RRIRIRPPRLPRPRPRPAHPPRP,0.239
25,RRIRERPPRLPRPRPRPDQAPRP,-0.00195

row,Sequence,shrunken log2 fold change
1,RRIRNRPPRLPRPRPRPCRYPRP,-0.148
2,RRIRVRPPRLPRPRPRPARFPRP,0.16
3,RRIRMRPPRLPRPRPRPIFNPRP,-0.257
4,RRIRCRPPRLPRPRPRPIKPPRP,-0.259
5,RRIRTRPPRLPRPRPRPMTDPRP,0.0245
6,RRIRHRPPRLPRPRPRPASIPRP,-0.164
7,RRIRGRPPRLPRPRPRPNGCPRP,0.12
8,RRIRPRPPRLPRPRPRPIDMPRP,-0.0916
9,RRIRDRPPRLPRPRPRPCEHPRP,-0.133
10,RRIRTRPPRLPRPRPRPPIHPRP,-0.323
11,RRIRLRPPRLPRPRPRPYHLPRP,-0.213
12,RRIRQRPPRLPRPRPRPQTLPRP,-0.319
13,RRIRKRPPRLPRPRPRPISKPRP,-0.357
14,RRIRERPPRLPRPRPRPSGTPRP,-0.117
15,RRIRKRPPRLPRPRPRPNANPRP,0.135
16,RRIRCRPPRLPRPRPRPAWLPRP,0.303
17,RRIRLRPPRLPRPRPRPLMLPRP,-0.257
18,RRIRKRPPRLPRPRPRPKAKPRP,0.0663
19,RRIRYRPPRLPRPRPRPASTPRP,-0.0914
20,RRIRERPPRLPRPRPRPEYMPRP,-0.0257
21,RRIRGRPPRLPRPRPRPNSIPRP,0.00326
22,RRIRRRPPRLPRPRPRPWNFPRP,-0.0355
23,RRIRTRPPRLPRPRPRPSNAPRP,-0.424
24,RRIRDRPPRLPRPRPRPGNIPRP,-0.0319
25,RRIRERPPRLPRPRPRPHKMPRP,-0.701
